According to publication PMC11891784, “Reversible enzyme-catalysed NAD^+/NADH electrochemistry” (Chemical Science, 2025):

Substrate: NC(=O)c1ccc[n+]([C@@H]2O[C@H](COP(=O)(O)OP(=O)(O)OC[C@H]3O[C@@H](n4cnc5c(N)ncnc54)[C@H](O)[C@@H]3O)[C@@H](O)[C@H]2O)c1
Experiment: mediated catalytic cyclic voltammetry
Type: biochemical, Cupriavidus necator
Settings: methyl viologen 60 μM as electron donor, 50 mM phosphate pH 7.5, 25 °C, N2, FdsBG 0.34 μM, turnover number calculated from simulated rate constant and Km

B1: FdsBG (subcomplex of formate dehydrogenase FdsDABG) (Cupriavidus necator H16) (protein)
chain: MITITTIFVPRDSTALALGADDVARAIAREAAARNEHVRIVRNGSRGMFWLEPLVEVQTGAGRVAYGPVSAADVPGLFDAGLLQGGEHALSQGVTEEIPFLKQQERLTFARVGITDPLSLDDYRAHEGFAGLERALAMQPAEIVQEVTDSGLRGRGGAAFPTGIKWKTVLGAQSAVKYIVCNADEGDSGTFSDRMVMEDDPFMLIEGMTIAALAVGAEQGYIYCRSEYPHAIAVLESAIGIANAAGWLGDDIRGSGKRFHLEVRKGAGAYVCGEETALLESLEGRRGVVRAKPPLPALQGLFGKPTVINNVISLATVPVILARGAQYYRDYGMGRSRGTLPFQLAGNIKQGGLVEKAFGVTLRELLVDYGGGTRSGRAIRAVQVGGPLGAYLPESRFDVPLDYEAYAAFGGVVGHGGIVVFDETVDMAKQARYAMEFCAIESCGKCTPCRIGSTRGVEVMDRIIAGEQPVKHVALVRDLCDTMLNGSLCAMGGMTPYPVLSALNEFPEDFGLASNPAKAA
notes: FdsBG subcomplex without FdsA and FdsD; FdsB 55 kDa (FMN, [4Fe-4S]) and FdsG 19 kDa ([2Fe-2S]); 74 kDa in total; expressed and purified by a published procedure; with NAD-dependent formate dehydrogenase gamma subunit
  Km: 1.2(1) mM
  kcat: 2400 s⁻¹
